The values that follow come from patent publication US20130260436A1, “Methods of Identifying and Characterizing Natural Product Gene Clusters” (Victoria LInk Limited, priority 2010, published 2013).

The target of series [1] is T1, BpsA (Streptomyces lavendulae, UniProt Q1MWN4).
T1 construct: 6His; made in house; host or cells: E. coli
The series can be described thus: BpsA coupled assay for PPTase kinetic parameters, BpsA as variable substrate. The note with it: CoA fixed at 25 μM. Format: biochemical, S. lavendulae ATCC 11924. The source says: Having established a linear relationship between concentration of holo-BpsA and the apparent rate of indigoidine synthesis in aqueous solution, we next wanted to test whether it was possible to evaluate PPTase activity by using acceleration of the rate of indigoidine synthesis as a measure of the rate of 4′-PP attachment to apo-BpsA. […] Under these conditions, the pigment synthesis reaction undergoes an initial acceleration phase as apo-BpsA is converted to holo-BpsA by the PPTase. […]
A590 values were then recorded as previously described. […] A590 values were then recorded as previously described. For derivation of PPTase velocity values, the slope between every 2-8 data points was measured across the entire data range with the resulting values forming a new data set (BpsA velocity). The slope between every 2-8 points in the BpsA velocity data set was then determined using the slope function of Microsoft Excel and the maximum value from the resulting data set for each reaction taken as a measure of PPTase velocity. […] For fast reactions smaller increments could be used, however for slow reactions noise from plate reader noise became a significant factor in point to point variation and created artificial fluctuations in measured slopes if too few points were used in slope determination. […]

Series [2] has as its system BpsA. The experiment in a line: Qualitative PPTase activity in vivo by co-expression with a BpsA reporter in E. coli. Format: cell-based, S. lavendulae ATCC 11924. The note with it: E. coli BL21(DE3), auto-induction agar plates. The protocol:
Single colonies of E. coli co-expressing BpsA and an activating PPTase were inoculated onto pigment production agar plate using a sterile pipette tip and incubated for 16 hours at 37° C. Protein expression was then induced by IPTG addition as described in Section 4.9.2 and the plate incubated for a further 24 h at room temperature (18-25° C.).
We constructed plasmids that allowed IPTG regulated co-expression of a candidate PPTase and BpsA in E. coli BL21(DE3). To enable IPTG regulated co-expression the BpsA gene of S. lavendulae ATCC 11924 was cloned into pCDFDUET-1 (Novagen) and three candidate PPTases into the (origin of replication compatible) vector pET28a(+). […] In contrast, if IPTG was absent from the medium viable co-transformed cells were recovered with good efficiency (not shown). […] In order to circumvent this problem we employed auto-induction agar plates, prepared by addition of 1.5% agar to Studier ZYP-5052 auto-induction medium (Studier 2005). Use of auto-induction agar plates allowed for both rapid growth and efficient induction of pigment production following extended incubation at room temperature.

Series [3] in a line: BpsA coupled assay for PPTase kinetic parameters, CoA as variable substrate. Format: biochemical. The conditions noted are these: BpsA fixed at 0.83 μM. The source says: Having established a linear relationship between concentration of holo-BpsA and the apparent rate of indigoidine synthesis in aqueous solution, we next wanted to test whether it was possible to evaluate PPTase activity by using acceleration of the rate of indigoidine synthesis as a measure of the rate of 4′-PP attachment to apo-BpsA. Replicate solutions containing PPTase and all of the substrates necessary for both phosphopantetheinylation and indigoidine synthesis were established using a twofold serial dilution series of CoA (0.024-50 μM) in ninety six well plates. Reactions were initiated by addition of 0.83 μM BpsA each well of a dilution series, and absorbance at 590 nm was measured continuously. Under these conditions, the pigment synthesis reaction undergoes an initial acceleration phase as apo-BpsA is converted to holo-BpsA by the PPTase. […]
A590 values were then recorded as previously described. […] A590 values were then recorded as previously described. For derivation of PPTase velocity values, the slope between every 2-8 data points was measured across the entire data range with the resulting values forming a new data set (BpsA velocity). The slope between every 2-8 points in the BpsA velocity data set was then determined using the slope function of Microsoft Excel and the maximum value from the resulting data set for each reaction taken as a measure of PPTase velocity. […]

A short description of series [4]: BpsA indigoidine synthesis kinetics, L-Gln as variable substrate. Format: biochemical. The procedure: Analysis of BpsA reaction rate over a replicate two fold serial dilution series (0.78 μM-16 mM) of L-gln was conducted at both pH 7.8 (sodium phosphate) and 8.0 (Tris-Cl). […] As such the ΔA590 was expected to be directly proportional to the concentration of holo-BpsA present in a reaction. This assumption was experimentally verified by monitoring reaction velocity at ten different concentrations of holo-BpsA (360 nM-1.14 μM) at constant L-gln/ATP concentrations; as shown in FIG. 6C the relationship between enzyme concentration and velocity is linear within this range (R^2=0.989). Owing to the lack of an extinction co-efficient for indigoidine in water, coupled with formation of insoluble precipitate, we were unable to derive a kcat value for BpsA. We were however able to discern a reproducible maximum velocities which are expressed with the units ΔA590/s. These parameters were subsequently employed for the derivation of PPTase kinetics as outlined in section 4.11.
Pre-activation mix to bring about conversion of apo to holo BpsA contained 3.4 μM apo-BpsA, 0.25 μM PcpS, 10 mM MgCl2, 100 μM CoA and 50 mM buffer (sodium phosphate buffer pH 7.8 or Tris-Cl pH 8.0) and was incubated for 20 min at 30° C.
A590 measurements were then taken every 6-10 s for ten minutes using an envision EnSpire® microplate reader. The resulting data was visualized and velocities derived using the Slope function of Microsoft Excel®. Kinetic parameters were derived from velocity values using Graphpad Prism®. For examination of the relationship between BpsA concentration and reaction velocity, a triplicate two fold serial dilution series of pre-activated BpsA was established in a 96 wp in a final volume of 50 μL, 100 μl reaction mix without L-gln or ATP was then added to each well. […] A590 values were then recorded and data analysed as previously described.

Series [5] is described as follows: BpsA indigoidine synthesis kinetics with respect to ATP (values used in PPTase unit conversion). Format: biochemical. The source says: The raw data input into SigmaPlot for derivation of kinetic parameters for the PPTases PcpS and PP1183 was maximum change in indigoidine (ind) synthesis reaction rate (change in gradient per second) vs. concentration of CoA present in the reaction. The Vmax values given by SigmaPlot therefore had the units “Change in gradient per second” The assumptions made and calculations used to convert this standard enzyme kinetics units are given below. […] As such the assumption can be made that reaction rate for this enzyme is directly proportional to the concentration of active enzyme according to the equation:
For the reactions used in derivation of kinetic parameters of PPTases, [BpsA]=[E]=1.64 uM. [S]=[ATP]=1 mM.

B1: Sfp: PPTase of B. subtilis subsp. spizizenii ATCC6633 (protein, UniProt P39135 1-224, looked up)
4'-phosphopantetheinyl …: MKIYGIYMDRPLSQEENERFMSFISPEKREKCRRFYHKEDAHRTLLGDVLVRSVISRQYQLDKSDIRFSTQEYGKPCIPDLPDAHFNISHSGRWVICAFDSQPIGIDIEKTKPISLEIAKRFFSKTEYSDLLAKDKDEQTDYFYHLWSMKESFIKQEGKGLSLPLDSFSVRLHQDGQVSIELPDSHSPCYIKTYEVDPGYKMAVCAAHPDFPEDITMVSYEELL
In general, Km refers to the substrate concentration at which the rate is half of its maximum. A word on the kcat: it is the maximal rate divided by the concentration of active sites. As to B1, in the series with BpsA [1], the Km came out at 3.3 µM and the kcat was found to be 0.0357 ± 0.00067 s⁻¹. For the same molecule, the “Indigoidine production on co-expression with BpsA” value in the series with BpsA [2] is “substantial production of indigoidine”. Besides, in series [3], the Km amounted to 0.62 µM and the kcat came to 0.00213 ± 6.7e-05 s⁻¹.

B2: BpsA: single module NRPS protein of S. lavendulae ATCC11924 that converts L-glutamine into indigoidine; SEQ ID NO: 3 (protein, listed as Streptomyces lavendulae)
chain: MTLQETSVLEPTLQGTTTLPGLLAQRVAEHPEAIAVAYRDDKLTFRELASRSAALADYLEHLGVSADDCVGLFVEPSIDLMVGAWGILNAGAAYLPLSPEYPEDRLRYMIENSETKIILAQQRLVSRLRELAPKDVTIVTLRESEAFVRPEGTEAPAARSARPDTLAYVIYTSGSTGKPKGVMIEHRSIVNQLGWLRETYAIDRSKVILQKTPMSFDAAQWEILSPANGATVVMGAPGVYADPEGLIETIVKHNVTTLQCVPTLLQGLIDTEKFPECVSLQQIFSGGEALSRLLAIQTTQEMPGRALINVYGPTETTINSSSFPVDPADLDEGPQSISIGSPVHGTTYHILDKETLKPVGVGEIGELYIGGIQLARGYLHRDDLTAERFLEIELEEGAEPVRLYKTGDLGQWNNDGTVQFAGRADNQVKLRGYRVELDEISLAIENHDWVRNAAVIVKNDGRTGFQNLIACIELSEKEAALMDQGNHGSHHASKKSKLQVKAQLSNPGLRDDAELAARPAFDLEGAEPTPEQRARVFARKTYRFYEGGAVTQADLLGLLGATVTAGYSRKAADLAPAELGQILRWFGQYISEERLLPKYGYASPGALYATQMYFELEGVGGLKPGYYYYQPVRHQLVLISEREATGKATAQIHFIGKKSGIEPVYKNNILEVLEIETGHMVGLFEQILPAYGLDIHDRAYEPAVKDLLDVADEDYYLGTFELVPHAGARDDQAEVYVQTHGGKVAGLPEGQYRYENGELTRFSDDIVLKKHVIAINQSVYQAASFGISVYSRAEEEWLKYITLGKKLQHLMMNGLNLGFMSSGYSSKTGNPLPASRRMDAVLGANGVDSAPMYFFVGGRISDEQIGHEGMREDSVHMRGPAELIRDDLVSFLPDYMIPNRVVVFDRLPLSANGKIDVKALAASDQVNAELVERPFVAPRTETEKEIAAVWEKALRRENASVQDDFFESGGNSLIAVGLVRELNARLGVSLPLQSVLESPTIEKLARRLEREVAQESSRFVRLHAETGKARPVICWPGLGGYPMNLRSLAGEIGLGRSFYGVQSYGINEGETPYETITEMAKKDIEALKEIQPAGPYTLWGYSFGARVAFETAYQLEQAGEKVDNLFLIAPGSPKVRAENGKVWGREASFANRGYTTILFSVFTGTISGPDLDRCLETVTDEASFAEFISELKGIDVDLARRIISVVGQTYEFEYSFHELAERTLQAPISIFKAVGDDYSFLENSSGYSAEPPTVIDLDADHYSLLREDIGELVKHIRYLLGE
On to B2, for which the Km was determined as 2430 µM in series [4] (NaPh pH 7.8, ATP 2.5 mM); 3330 µM in series [4] (Tris-Cl pH 8.0, ATP 2.5 mM); 11100 µM in series [5] (ATP as substrate). Further, the Vmax is 1.8 +/− 0.03 (ΔA590 · S^−1 · μM^−1) × 10^−2 in series [4] (NaPh pH 7.8, ATP 2.5 mM) and 6.5 +/− 0.1 (ΔA590 · S^−1 · μM^−1) × 10^−2 in series [4] (Tris-Cl pH 8.0, ATP 2.5 mM). In addition, the “Kcat (BpsA)” value in series [5] (value used for unit conversion of PPTase kinetics) stood at 4.0223 s⁻¹.
